In patent US20220096653A1, “CONJUGATE COMPRISING LIGAND AND CEACAM5 ANTIBODY FAB FRAGMENT” (ASTELLAS PHARMA INC., priority 2019, published 2022):
Values joined by “and” are separate entries in the source; they are usually repeats but may differ in a detail not shown here. Equal entries are not always repeated.

Tests used:
[1] = mouse, in vivo; cited from earlier work
liver metastasis = conditions: compared with the normal liver; cited from earlier work
[2] = molecular target: human cancer-specific MUC1 peptide (PTL 1) (human); assay: ELISA on immobilised human cancer-specific MUC1 peptide, 4-parameter fit; one of 3 runs (Example 6-1)
[3] = molecular target: human cancer-specific MUC1 peptide (PTL 1) (human); assay: ELISA on immobilised human cancer-specific MUC1 peptide, 4-parameter fit; one of 3 runs (Example 6-2)
[4] = test system: human colorectal cancer cell line LS174T cells; assay: Amount of tumor accumulation of Gd-labeled conjugates, LS174T tumor-bearing mice (Example 4-4); conditions: Gd per g of tumor tissue, 24 hours, mean of 3 cases
Experimental: (§3) A Gd-labeled conjugate of the conjugate containing a peptide linker produced in one of the above Examples was administered from the tail vein of tumor-bearing mice so that the protein mass was 0.02 mg (100 μL) per animal. As the tumor-bearing mice used in the present Example, mice (BALB/c nu/nu) that were in a tumor-bearing state brought about by transplanting human colorectal cancer cell line LS174T cells (ATCC(registered trademark); CL-188) at 2.0 to 5.0×10^6 cells/mouse subcutaneously on the back before administration of the sample were used. 24 hours after administration of the sample, the mice were sacrificed, the kidneys and the tumor were removed, and the amounts of Gd in the kidneys and in the tumor were measured using ICP-MS. The present test was carried out in 3 cases in each group, and the mean value of the 3 cases was calculated. The amount of Gd contained per kidney after administration was shown as a percentage of the amount of Gd administered (% of dose/tissue), and the amount of Gd contained per g of tumor tissue was shown as a percentage of the total amount of Gd administered (% of dose/g).

[5] = design: species or system mice (BALB/c nu/nu); conditions: mouse, in vivo
Experimental: as §3

[6] = Kidney accumulation evaluation test of Gd-labeled conjugates, normal mice (Example 4-1)
Experimental: A Gd-labeled conjugate of the conjugate containing a peptide linker produced in one of the above Examples was administered from the tail vein of mice (BALB/c or BALB/c nu/nu) so that the protein mass was 0.02 mg (100 μL) per animal. After about 24 hours, the mice were sacrificed and the kidneys were removed, and the amount of Gd in the kidneys was measured using ICP-MS. The present test was carried out in 3 cases in each group, the mean value of the 3 cases was calculated, and the amount of Gd contained per kidney after administration was shown as a percentage (% of dose/tissue) of the total amount of Gd administered.
Based on the percentage of the control conjugate (% of dose/tissue), the proportion of decrease in the amount of Gd contained in the kidneys of each of the conjugates having a peptide linker was determined and shown in Table 28.

[7] = molecular target: T1, CEACAM5 (R&D Systems, 4128-CM-050) (human, UniProt P06731 35-685); assay: ELISA on immobilised CEACAM5, 4-parameter fit; geometric mean of 9 runs
T1 construct: Immobilised on the ELISA plate; also called human CEACAM5
T1 sequence (looked up): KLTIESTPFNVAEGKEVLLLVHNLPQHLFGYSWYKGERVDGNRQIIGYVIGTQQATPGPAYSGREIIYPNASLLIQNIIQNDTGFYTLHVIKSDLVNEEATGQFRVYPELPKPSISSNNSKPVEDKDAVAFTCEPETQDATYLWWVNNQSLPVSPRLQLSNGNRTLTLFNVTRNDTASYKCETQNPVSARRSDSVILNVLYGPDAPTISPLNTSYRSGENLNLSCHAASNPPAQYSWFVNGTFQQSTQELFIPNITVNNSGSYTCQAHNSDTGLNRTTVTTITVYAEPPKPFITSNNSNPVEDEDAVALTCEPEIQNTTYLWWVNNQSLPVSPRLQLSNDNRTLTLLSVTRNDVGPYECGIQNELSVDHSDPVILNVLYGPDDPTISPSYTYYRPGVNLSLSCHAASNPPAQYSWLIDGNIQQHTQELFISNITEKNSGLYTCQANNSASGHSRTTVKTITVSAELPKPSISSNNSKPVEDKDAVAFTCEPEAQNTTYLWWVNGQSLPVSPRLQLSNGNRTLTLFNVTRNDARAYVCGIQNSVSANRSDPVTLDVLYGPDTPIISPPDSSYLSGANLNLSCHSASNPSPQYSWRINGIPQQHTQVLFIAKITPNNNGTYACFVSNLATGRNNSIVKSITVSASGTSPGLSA
Experimental: (§1) Each anti-human CEACAM5 antibody Fab fragment conjugate prepared in Example 2 was subjected to ELISA to evaluate the binding activity thereof to CEACAM5. In the present test, a phosphate buffer (Nacalai Tesque Inc., 0.1 mol/L-Phosphate Buffer Solution (pH 7.2)) prepared to 10 mM by diluting 10-fold with distilled water was used as a solvent for an antigen immobilization liquid, and 20×PBS/Tween 20 Buffer (Thermo Fisher Scientific Inc., 28352) diluted 20-fold with distilled water was used as a wash liquid. In addition, for bovine serum albumin (BSA) used in the present test, 30% Bovine Serum Albumin solution (Sigma-Aldrich, Inc., A9576-50ML) was added in an appropriate proportion for use. CEACAM5 (R&D Systems, 4128-CM-050) was diluted with a 10 mM phosphate buffer (pH 7.2) to 0.1 μg/mL, and added to a Nunc MaxiSorp White 384 plate (Nunc, 4603272) at 30 μL per well, and the plate was incubated overnight at 4° C. for immobilization. The CEACAM5 immobilization liquid was removed by reverse centrifugation, and then blocking was carried out by adding a PBS/Tween 20 buffer containing 5.0% BSA. […] The substrate was incubated at room temperature for 15 minutes, and then a signal value thereof was measured using an Envision counter (PerkinElmer, Inc.).
The test for each antibody was carried out in duplicate, and an EC₅₀ value was calculated using a 4-parameter logistic curve model.

[8] = molecular target: T1, CEACAM5 (R&D Systems, 4128-CM-050); assay: ELISA on immobilised CEACAM5, 4-parameter fit; one of 2 runs (Example 3-2)
Experimental: as §1
(§2) The test for each antibody was carried out in duplicate, and the EC₅₀ value was calculated using a 4-parameter logistic curve model.

[9] = molecular target: T1, CEACAM5 (R&D Systems, 4128-CM-050); assay: ELISA on immobilised CEACAM5, 4-parameter fit, duplicate (Example 3-2)
Experimental: as §1, §2

In the case of “[^111In]DOTA-Rituxan Fab: conjugate of [^111In]DOTA-Rituxan Fab (NPL 11)”, the “accumulation in the kidneys” value [1] is given as “highly accumulated in the kidneys”.

For “CEA-Scan: mouse monoclonal antibody NP-4 Fab′ labeled with ^99mTc; FDA-approved diagnostic drug for colorectal cancer”, the “uptake into lesion sites” value (liver metastasis) is given as “does not exceed the uptake into the normal liver”.

B1: anti-human MUC1 antibody Fab fragment P10-2 (Fab, V domains shown)
VH: QVQLVQSGAEVKKPGASVKVSCKASGYTFTNYGLSWVRQAPGQGLEWMGENHPGSGIIYHNEKFRGRVTLTADRSTSTAYMELSSLRSEDTAVYYCARSSGTRGFDYWGQGTLVTVSS
VL: DVVMTQTPLSLSVTPGQPASISCRSSQSIVHSNGNTYLEWYLQKPGQSPQLLIYRVSNRFSGVPDRFSGSGSGTDFTLKISRVEAEDVGVYYCFQGSHGPWTFGQGTKLEIKR
modifications: glutamine of amino acid 1 modified to pyroglutamic acid (as Fab^5 is defined in paragraph 370)
In the case of B1, the EC50 [2] is reported as 0.06 nM and 0.14 nM and the EC50 [3] is reported as 0.06 nM and 0.14 nM.

B2: [Gd/DOTA-[2,5-(1,2,3,4-tetrahydroisoquinoline)]-C(═O)-Met-Gly-Lys*-Z2(#N)]p-Fab^2 (conjugate)
heavy: EVQLVESGGGLVQPGGSLRLSCAASGFNIRDTYMHWVRQAPGKGLEWVARIDPANGNSRYVPKFQGRFTISADTSRNTAYLQMNSLRAEDTAVYYCAPFGYYVSDYAMAYWGQGTLVTVSSASTKGPSVFPLAPSSKSTSGGTAALGCLVKDYFPEPVTVSWNSGALTSGVHTFPAVLQSSGLYSLSSVVTVPSSSLGTQTYICNVNHKPSNTKVDKKVEPKSCD
light: DIQLTQSPSSLSASVGDRVTITCRAGESVDIFGVGFLHWYQQKPGKAPKLLIYRASNLESGIPSRFSGSGSRTDFTLTISSLQPEDFATYYCQQTNEDPYTFGQGTKVEIKRTVAAPSVFIFPPSDEQLKSGTASVVCLLNNFYPREAKVQWKVDNALQSGNSQESVTEQDSKDSTYSLSSTLTLSKADYEKHKVYACEVTHQGLSSPVTKSFNRGEC
In the case of B2, the “Amount of tumor accumulation (tumor-bearing mice)” value [4] is reported as 4.53 % dose/g, the “Renal residual amount (tumor-bearing mice) % of dose/tissue” value [5] is reported as 7.30 % of dose/tissue and the “Renal residual amount (tumor-bearing mice) Proportion of decrease” value [5] is reported as 71.74%. The “Proportion of decrease (amount of Gd contained in the kidneys)” value ([6]; based on control conjugate Ex-No. 47, about 24 hours) was 82.9% and the “% of dose/tissue (amount of Gd contained per kidney)” value ([6]; tail vein, 0.02 mg protein per animal, about 24 hours, ICP-MS, mean of 3 cases) was 5.3 % of dose/tissue.

B3: anti-human CEACAM5 antibody Fab fragment PB009-01 (Fab, V domains shown)
VH: EVQLVESGGGLVQPGGSLRLSCAASGFNIRDTYMHWVRQAPGKGLEWVARIDPANGNSRYVPKFQGRFTISADTSRNTAYLQMNSLRAEDTAVYYCAPFGYYVSDYAMAYWGQGTLVTVSS
VL: DIQLTQSPSSLSASVGDRVTITCRAGESVDIFGVGFLHWYQQKPGKAPKLLIYRASNLESGIPSRFSGSGSRTDFTLTISSLQPEDFATYYCQQTNEDPYTFGQGTKVEIKR
notes: Humanized from mouse T84.66; also called Fab^2; Fab^2 fragment having no labeling portion
For B3, the EC50 [7] was 0.2 nM and the EC50 [8] was 0.14 nM and 0.21 nM.

B4: [Gd/DOTA-NH-CH2-(1,4-Ph)-NH-C(═O)-Met-Ile-NH-(CH2)2-(A-4 and/or A-5)]p-Fab^2 (Fab, V domains shown)
VH: EVQLVESGGGLVQPGGSLRLSCAASGFNIRDTYMHWVRQAPGKGLEWVARIDPANGNSRYVPKFQGRFTISADTSRNTAYLQMNSLRAEDTAVYYCAPFGYYVSDYAMAYWGQGTLVTVSS
VL: DIQLTQSPSSLSASVGDRVTITCRAGESVDIFGVGFLHWYQQKPGKAPKLLIYRASNLESGIPSRFSGSGSRTDFTLTISSLQPEDFATYYCQQTNEDPYTFGQGTKVEIKR
modifications: labeling may sit on this chain; sites not stated; labeling portion (MW 1092) on amino groups of the Fab, sites and chain not stated; 1-4 per Fab by MS
notes: also called Ex-No 66; Conjugate No. 66
With B4 the EC50 [9] was 0.16 nM.

B5: [Gd/DOTA-NH-CH2-(1,4-Ph)-NH-C(═O)-Met-Ile-NH-(CH2)2-(A-3)]p-Fab^2 (Fab, V domains shown)
VH: EVQLVESGGGLVQPGGSLRLSCAASGFNIRDTYMHWVRQAPGKGLEWVARIDPANGNSRYVPKFQGRFTISADTSRNTAYLQMNSLRAEDTAVYYCAPFGYYVSDYAMAYWGQGTLVTVSS
VL: DIQLTQSPSSLSASVGDRVTITCRAGESVDIFGVGFLHWYQQKPGKAPKLLIYRASNLESGIPSRFSGSGSRTDFTLTISSLQPEDFATYYCQQTNEDPYTFGQGTKVEIKR
modifications: labeling may sit on this chain; sites not stated; labeling portion (MW 1187) on amino groups of the Fab, sites and chain not stated; 1-3 per Fab by MS
notes: also called Ex-No 68; Conjugate No. 68
Work on B5 yielded an EC50 [9] of 0.31 nM.
